Publication PMC10570131, “TXNL1 has dual functions as a redox active thioredoxin-like protein as well as an ATP- and redox-independent chaperone” (Redox Biology, 2023)

Biological target: the molecule itself
Test: non-reducing SDS-PAGE with Western blot; pure control proteins and chromatography fractions separated on SDS-PAGE without or with DTT, blotted with anti-TXNL1 or anti-Trx1

| Protein | binding result |
| --- | --- |
| Thioredoxin (Trx1), human (natural protein, UniProt P10599-1 1-105, looked up, also called TXN; not shown: His6, N-terminal, cleaved; GFP, N-terminal, cleaved; SUMO, N-terminal, cleaved) MVKQIESKTAFQEALDAAGDKLVVVDFSATWCGPCKMIKPFFHSLSEKYSNVIFLEVDVDDCQDVASECEVKCMPTFQFFKKGQKVGEFSGANKEKLEATINELV | binds |
| Thioredoxin-like protein 1 (TXNL1), human, wildtype (natural protein, UniProt O43396 1-289, looked up, human TXNL1, open reading frame synthesised codon-optimised for E. coli; N-terminal Trx-fold domain (active site CGPC) and C-terminal PITH domain; also called TRP32; thioredoxin related protein of 32 kDa; not shown: His6, N-terminal, cleaved; GFP, N-terminal, cleaved; SUMO, N-terminal, cleaved) MVGVKPVGSDPDFQPELSGAGSRLAVVKFTMRGCGPCLRIAPAFSSMSNKYPQAVFLEVDVHQCQGTAATNNISATPTFLFFRNKVRIDQYQGADAVGLEEKIKQHLENDPGSNEDTDIPKGYMDLMPFINKAGCECLNESDEHGFDNCLRKDTTFLESDCDEQLLITVAFNQPVKLYSMKFQGPDNGQGPKYVKIFINLPRSMDFEEAERSEPTQALELTEDDIKEDGIVPLRYVKFQNVNSVTIFVQSNQGEEETTRISYFTFIGTPVQATNMNDFKRVVGKKGESH | binds |
